Bridges are numbered along the chain shown (N, C = ends). Where no end group is shown, it is not given here. [ ]: non-standard residue; d: D form. Aib = CC(C)(N)C(=O)O
T1: human GIP receptor (human, UniProt P48546 22-466)
T1 sequence (looked up): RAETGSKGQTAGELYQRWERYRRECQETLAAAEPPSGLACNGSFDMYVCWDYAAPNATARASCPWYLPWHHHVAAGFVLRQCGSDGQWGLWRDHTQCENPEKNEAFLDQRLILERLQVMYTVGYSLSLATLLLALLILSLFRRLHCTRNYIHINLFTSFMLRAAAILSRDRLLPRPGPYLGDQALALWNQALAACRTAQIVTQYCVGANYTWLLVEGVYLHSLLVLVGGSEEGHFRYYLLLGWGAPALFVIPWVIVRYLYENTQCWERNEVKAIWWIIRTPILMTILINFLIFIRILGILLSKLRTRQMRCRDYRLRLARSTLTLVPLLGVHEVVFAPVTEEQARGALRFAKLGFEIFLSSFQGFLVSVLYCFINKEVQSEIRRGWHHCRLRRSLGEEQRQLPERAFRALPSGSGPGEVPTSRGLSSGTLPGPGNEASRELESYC

B1: triple agonist of SEQ ID NO: 27 (peptide)
peptide: HXQGTFTSDYSKYLDERACQDFVQWLLDQGGPSSGAPPPS
HELM: PEPTIDE1{H.[Aib].Q.G.T.F.T.S.D.Y.S.K.Y.L.D.E.R.A.C.Q.D.F.V.Q.W.L.L.D.Q.G.G.P.S.S.G.A.P.P.P.S.[am]}$$$$V2.0; N-terminus assumed
SMILES: CC(C)C[C@H](NC(=O)[C@H](CC(C)C)NC(=O)[C@H](Cc1c[nH]c2ccccc12)NC(=O)[C@H](CCC(N)=O)NC(=O)[C@@H](NC(=O)[C@H](Cc1ccccc1)NC(=O)[C@H](CC(=O)O)NC(=O)[C@H](CCC(N)=O)NC(=O)[C@H](CS)NC(=O)[C@H](C)NC(=O)[C@H](CCCNC(=N)N)NC(=O)[C@H](CCC(=O)O)NC(=O)[C@H](CC(=O)O)NC(=O)[C@H](CC(C)C)NC(=O)[C@H](Cc1ccc(O)cc1)NC(=O)[C@H](CCCCN)NC(=O)[C@H](CO)NC(=O)[C@H](Cc1ccc(O)cc1)NC(=O)[C@H](CC(=O)O)NC(=O)[C@H](CO)NC(=O)[C@@H](NC(=O)[C@H](Cc1ccccc1)NC(=O)[C@@H](NC(=O)CNC(=O)[C@H](CCC(N)=O)NC(=O)C(C)(C)NC(=O)[C@@H](N)Cc1c[nH]cn1)[C@@H](C)O)[C@@H](C)O)C(C)C)C(=O)N[C@@H](CC(=O)O)C(=O)N[C@@H](CCC(N)=O)C(=O)NCC(=O)NCC(=O)N1CCC[C@H]1C(=O)N[C@@H](CO)C(=O)N[C@@H](CO)C(=O)NCC(=O)N[C@@H](C)C(=O)N1CCC[C@H]1C(=O)N1CCC[C@H]1C(=O)N1CCC[C@H]1C(=O)N[C@@H](CO)C(N)=O
B2: triple agonist of SEQ ID NO: 26 (peptide)
peptide: HXQGTFTSDCSKYLDSRAAQDFVQWLLDGGPSSGAPPPS
HELM: PEPTIDE1{H.[Aib].Q.G.T.F.T.S.D.C.S.K.Y.L.D.S.R.A.A.Q.D.F.V.Q.W.L.L.D.G.G.P.S.S.G.A.P.P.P.S.[am]}$$$$V2.0; N-terminus assumed
SMILES: CC(C)C[C@H](NC(=O)[C@H](CC(C)C)NC(=O)[C@H](Cc1c[nH]c2ccccc12)NC(=O)[C@H](CCC(N)=O)NC(=O)[C@@H](NC(=O)[C@H](Cc1ccccc1)NC(=O)[C@H](CC(=O)O)NC(=O)[C@H](CCC(N)=O)NC(=O)[C@H](C)NC(=O)[C@H](C)NC(=O)[C@H](CCCNC(=N)N)NC(=O)[C@H](CO)NC(=O)[C@H](CC(=O)O)NC(=O)[C@H](CC(C)C)NC(=O)[C@H](Cc1ccc(O)cc1)NC(=O)[C@H](CCCCN)NC(=O)[C@H](CO)NC(=O)[C@H](CS)NC(=O)[C@H](CC(=O)O)NC(=O)[C@H](CO)NC(=O)[C@@H](NC(=O)[C@H](Cc1ccccc1)NC(=O)[C@@H](NC(=O)CNC(=O)[C@H](CCC(N)=O)NC(=O)C(C)(C)NC(=O)[C@@H](N)Cc1c[nH]cn1)[C@@H](C)O)[C@@H](C)O)C(C)C)C(=O)N[C@@H](CC(=O)O)C(=O)NCC(=O)NCC(=O)N1CCC[C@H]1C(=O)N[C@@H](CO)C(=O)N[C@@H](CO)C(=O)NCC(=O)N[C@@H](C)C(=O)N1CCC[C@H]1C(=O)N1CCC[C@H]1C(=O)N1CCC[C@H]1C(=O)N[C@@H](CO)C(N)=O

Experiments:
Assay in all cases: cell-based or functional assay
[1] = molecular target: human GLP-1 receptor (human, UniProt P43220 24-463)
[2] = molecular target: human GCG receptor (human, UniProt P47871 26-477)
[3] = molecular target: T1, human GIP receptor

Chain of human GCG receptor (P47871 26-477): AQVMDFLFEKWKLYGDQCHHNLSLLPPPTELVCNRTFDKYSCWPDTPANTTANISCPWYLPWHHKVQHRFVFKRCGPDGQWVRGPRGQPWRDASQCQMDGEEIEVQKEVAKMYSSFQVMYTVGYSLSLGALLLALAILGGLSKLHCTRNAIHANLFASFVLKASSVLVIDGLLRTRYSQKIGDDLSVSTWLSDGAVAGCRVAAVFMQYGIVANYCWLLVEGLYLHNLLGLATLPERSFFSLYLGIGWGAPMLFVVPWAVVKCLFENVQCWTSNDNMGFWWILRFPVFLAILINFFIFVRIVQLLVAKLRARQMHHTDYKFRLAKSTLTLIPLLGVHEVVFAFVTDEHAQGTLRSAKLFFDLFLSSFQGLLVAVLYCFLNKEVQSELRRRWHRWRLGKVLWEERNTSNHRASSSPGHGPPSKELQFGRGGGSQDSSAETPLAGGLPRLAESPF

Binder	in vitro Activity Compared to Native Peptide (%), vs GLP-1 [1] [%]	in vitro Activity Compared to Native Peptide (%), vs Glucagon [2] [%]	in vitro Activity Compared to Native Peptide (%), vs GIP [3] [%]
H[Aib]QGTFTSDYSKYLDEKRAQEFVCWLLAQKGKKNDWKHNIT-NH2 [triple agonist of SEQ ID NO: 28]	17.2	1.6	< 0.1
B1	83.1	0.8	0.9
B2	64.5	0.2	< 0.1
H[Aib]QGTFTSDYSKYLDEKAAKEFVQWLLNTC (bridge 16-20; not fully specified (C-terminus)) [triple agonist of SEQ ID NO: 29]	38.5	6	< 0.1

Source: patent publication US20250114463A1, “LIVER-TARGETED DRUG AND USE THEREOF” (HANMI PHARM. CO., LTD., priority 2021, published 2025)
